Experimental data from PMC10483858 (Molecular Cancer, 2023).
Where no end group is shown, it is not given here. [ ]: non-standard residue; d: D form. TrpNAc = Trp with an acetic acid moiety; Hyp = O=C(O)[C@@H]1C[C@@H](O)CN1; NMeNle = CCCC[C@H](NC)C(=O)O; NMeA = CN[C@@H](C)C(=O)O; Dab = NCC[C@H](N)C(=O)O; Scc = not defined here

Molecular target: T1, PD-L1 of the commercial HTRF PD-1/PD-L1 interaction assay
T1 construct: PD-L1 as supplied in the Cisbio HTRF kit
Assay: AlphaScreen or HTRF; commercial HTRF PD-1/PD-L1 interaction assay (Cisbio, France); pAC65 varied; data fitted with Hill's model
Conditions: both partners purified

B1: pAC65 macrocyclic peptide (peptide)
chain: Y[NMeA]NP[Ala‑NH2]L[Hyp]W[Dab][TrpNAc][NMeNle][NMeNle]L[Scc]G-NH2
modifications: bridge (positions not given here); not fully specified (bridges); reading uncertain; also: macrocyclic ring, places not given here
IC50: 1.8 ± 0.16 nM
